The numbers were not newly measured in article PMC3184957, “Improving a Natural CaMKII Inhibitor by Random and Rational Design” (PLoS ONE, 2011), which cites them from elsewhere.

The target of this series is T1, CaMKIIα (Rattus norvegicus, UniProt P11275).
T1 construct: made in house; host or cells: baculovirus/Sf9 (CaMKII); bacteria (CaM)
The note with it: background statement of the abstract, no reference given; read-out: IC50 of CaMKII inhibition by CaM-KIIN. As to the method:
Background CaM-KIIN has evolved to inhibit stimulated and autonomous activity of the Ca^2+/calmodulin (CaM)-dependent protein kinase II (CaMKII) efficiently, selectively, and potently (IC50 ∼100 nM). The CN class of peptides, derived from the inhibitory region of CaM-KIIN, provides powerful new tools to study CaMKII functions. The goal of this study was to identify the residues required for CaMKII inhibition, and to assess if artificial mutations could further improve the potency achieved during evolution. Methodology/Principal Findings First, the minimal region with full inhibitory potency wa ...

B1: CaM-KIIN: natural CaMKII inhibitor protein expressed in brain (protein, UniProt Q7Z7J9 1-78, looked up)
Calcium/calmodulin-dependent …: MSEVLPYGDEKLSPYGDGGDVGQIFSCRLQDTNNFFGAGQNKRPPKLGQIGRSKRVVIEDDRIDDVLKNMTDKAPPGV
As for B1, the IC50 (commonly the concentration at which inhibition is half-maximal) is ~100 nM.
